# In paper PMC12673853, “Impaired nick recognition and ligation efficiency by LIG1 K845N variant linked to Huntington’s disease”:
# What was measured:
# [1] = target: T1, LIG1 wild-type (Cy5-labelled) (human, UniProt P18858 1-919); experiment: single-molecule TIRF co-localization; tbound 7.0 ± 0.9 s and 0.7 ± 0.1 s; tunbound 61 ± 2 s; 1 nM LIG1; TIRF: 1 mM HEPES pH 7.4, 20 mM NaCl, 0.02% BSA, 0.002% Tween 20, oxygen scavenger (44 mM glucose, glucose oxidase, catalase), 10 mM Trolox, 1 nM LIG1-Cy5, room; details: protein: recombinant; tags: 6xHis; Cy5 (NHS ester); label: 5'-biotin on S15; 3'-AF488 on S18; blunt 34-bp duplex with one nick between S15 and S18; 3'-A opposite T at nick
# [2] = target: LIG1 K845N (Cy5-labelled) (human, UniProt P18858 1-919, K845N); experiment: single-molecule TIRF co-localization; long tbound 4 ± 0.7 s; tunbound 113 ± 8 s; similar to its nick binding, mostly nonspecific; 1 nM LIG1; TIRF: 1 mM HEPES pH 7.4, 20 mM NaCl, 0.02% BSA, 0.002% Tween 20, oxygen scavenger (44 mM glucose, glucose oxidase, catalase), 10 mM Trolox, 1 nM LIG1-Cy5, room; details: protein: recombinant; tags: 6xHis; Cy5 (NHS ester); label: 5'-biotin and 3'-AF488 on S1; blunt, no nick
# [3] = target: T1, LIG1 wild-type (Cy5-labelled); experiment: single-molecule TIRF co-localization; tunbound 79 ± 5 s; 1 nM LIG1; TIRF: 1 mM HEPES pH 7.4, 20 mM NaCl, 0.02% BSA, 0.002% Tween 20, oxygen scavenger (44 mM glucose, glucose oxidase, catalase), 10 mM Trolox, 1 nM LIG1-Cy5, room; details: protein: recombinant; tags: 6xHis; Cy5 (NHS ester); label: 5'-biotin on strand 1; 3'-AF488 on S18; blunt 34-bp duplex with one nick between strand 1 and S18; 3'-8oxoG opposite A at nick
# T1 sequence (P18858 whole entry): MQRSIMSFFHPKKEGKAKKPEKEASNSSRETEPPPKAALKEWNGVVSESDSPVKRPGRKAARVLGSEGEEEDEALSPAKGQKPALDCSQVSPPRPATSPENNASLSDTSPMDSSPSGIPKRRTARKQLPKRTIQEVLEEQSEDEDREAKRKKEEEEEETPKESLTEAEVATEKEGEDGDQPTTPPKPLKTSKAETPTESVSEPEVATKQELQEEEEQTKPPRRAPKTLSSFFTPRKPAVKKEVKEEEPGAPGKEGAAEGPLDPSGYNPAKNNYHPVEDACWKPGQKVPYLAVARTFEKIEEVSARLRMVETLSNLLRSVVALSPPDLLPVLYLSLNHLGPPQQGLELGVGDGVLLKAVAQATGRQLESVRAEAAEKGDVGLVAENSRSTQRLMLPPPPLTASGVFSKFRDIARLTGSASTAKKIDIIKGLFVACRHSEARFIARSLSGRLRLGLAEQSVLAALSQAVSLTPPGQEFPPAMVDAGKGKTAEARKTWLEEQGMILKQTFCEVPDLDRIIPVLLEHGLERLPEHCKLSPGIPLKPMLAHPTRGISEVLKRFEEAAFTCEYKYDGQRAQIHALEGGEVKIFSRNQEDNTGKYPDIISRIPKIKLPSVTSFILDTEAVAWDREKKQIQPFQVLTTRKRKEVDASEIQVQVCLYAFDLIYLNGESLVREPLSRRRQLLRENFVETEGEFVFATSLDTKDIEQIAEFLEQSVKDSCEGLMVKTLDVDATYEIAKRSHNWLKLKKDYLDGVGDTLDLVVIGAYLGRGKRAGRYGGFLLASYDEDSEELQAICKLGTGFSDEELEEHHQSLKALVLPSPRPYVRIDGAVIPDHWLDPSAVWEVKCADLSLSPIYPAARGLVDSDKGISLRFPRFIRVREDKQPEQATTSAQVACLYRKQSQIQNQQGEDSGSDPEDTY
# Sequence of LIG1 K845N (Cy5-labelled) (P18858 whole entry K845N): as the sequence (P18858 whole entry) above, with K845N counted along it
binder,measurement,setting,value
"nick A:T (dsDNA, 5'-phosphate on S18 at nick) DNA 1: CATGGGCGGCATGAACCA DNA 2: GAGGCCCATCCTCACC DNA 3: GGTGAGGATGGGCCTCTGGTTCATGCCGCCCATG",binding result,[1],binds
no-nick dsDNA (dsDNA) DNA 1: CATGGGCGGCATGAACCAGAGGCCCATCCTCACC DNA 2: GGTGAGGATGGGCCTCTGGTTCATGCCGCCCATG,binding result,[2],binds
"nick 8oxoG:A (dsDNA, 8-oxo-dG at position 18 of strand 1; 5'-phosphate on S18 at nick) DNA 1: CATGGGCGGCATGAACCG DNA 2: GAGGCCCATCCTCACC DNA 3: GGTGAGGATGGGCCTCAGGTTCATGCCGCCCATG",binding result,[3],binds
